Laboratory results published in US8301398 (WALTER AND ELIZA HALL INSTITUTE OF MEDICAL RESEARCH, dated 2012).

B1: anti-insulin receptor monoclonal antibody 83-7 (whole antibody) (antibody, V domains shown)
VH: QVQLKESGPGLVAPSQSLSITCTVSGFPLTAYGVNWVRQPPGKGLEWLGMIWGDGNTDYNSALKSRLSISKDNSKSQVFLKMNSLQTDDTARYYCARDPYGSKPMDYWGQGTSVTVSS
VL: DIVMSQSPSSLVVSVGEKVTMSCKSSQSLLYSSNQKNFLAWYQQKPGQSPKLLIYWASTRESGVPDRFTGSGSGTDFTLTISSVKAEDLAVYYCQQYFRYRTFGGGTKLEIKR
notes: also called Mab 83-7
B2: IR485 (residues 1-485 of the insulin receptor) with enterokinase cleavage site and c-myc epitope tag (receptor)
chain: HLYPGEVCPGMDIRNNLTRLHELENCSVIEGHLQILLMFKTRPEDFRDLSFPKLIMITDYLLLFRVYGLESLKDLFPNLTVIRGSRLFFNYALVIFEMVHLKELGLYNLMNITRGSVRIEKNNELCYLATIDWSRILDSVEDNHIVLNKDDNEECGDICPGTAKGKTNCPATVINGQFVERCWTHSHCQKVCPTICKSHGCTAEGLCCHSECLGNCSQPDDPTKCVACRNFYLDGRCVETCPPPYYHFQDWRCVNFSFCQDLHHKCKNSRRQGCHQYVIHNNKCIPECPSGYTMNSSNLLCTPCLGPCPKVCHLLEGEKTIDSVTSAQELRGCTVINGSLIINIRGGNNLAAELEANLGLIEEISGYLKIRRSYALVSLSFFRKLRLIRGETLEIGNYSFYALDNQNLRQLWDWSKHNLTTTQGKLFFHYNPKLCLSEIHKMEEVSGTKGRQERNDIALKTNGDKASCENELLKFSYIRTSFDKISDDDDKEQKLISEEDLN
notes: also called IR485/myc; soluble IR485

Legend:
[1] = target: B2; assay: sandwich ELISA, biotinylated 83-7 as developing antibody
[2] = target: the molecule itself; assay: gel filtration on Superdex 200 HR; monomeric on non-reduced SDS-PAGE
Description: Further purification was effected by gel filtration on Superdex 200 HR (Pharmacia, Sweden) in TBSA, monitored at 280 nm.

binding result [1]	Binder	binding result [2]
binds	B1	–
–	B2	binds
